“Also recorded” adds a separate entry of the source.

Holding throughout (format): in vivo, mouse
Assay [1] has as its system total splenocytes and lymph node cells. Description: Ex vivo recall responses, adoptive transfer R-EAE. The following applies: day 45; treatment from onset of remission. The procedure: On day 45 (unless otherwise indicated) following cell transfer, spleen and cervical lymph nodes or CNS from 3 representative mice of each group were collected, and the total cells were activated ex vivo at 0.5×10^6 cells per well with either OVA323-339, PLP139-151, PLP178-191, MBP84-104 (20 ug/ml), or anti-CD3 (1 ug/ml). Two sets of cultures were set up side-by-side. One set was pulsed with 1uCi of tritiated thymidine at 24 hours and harvested at 72 hours to determine cell proliferation. In the second set of cultures, supernatants were collected at 72 hours and tested for peptide-specific cytokine production as determined by LiquiChip.

Assay [2] relates to SJL/J mice. As to the kind of experiment: Trafficking of transferred cells into the CNS by flow cytometry, adoptive transfer R-EAE. As to conditions: day +10 post cell transfer. As for the experimental part: PLP139-151 sensitized cells were generated as described in Materials and Methods (cell counts in the reactivation culture are presented in Table 2) and labeled with PBSE (4 uM) before transfer to naïve mice. In study “Cgen data” (FIG. 12), disease was induced in recipient mice (n=10 per group) by i.v. transfer of 5×10^6 blast cells to each recipient mouse. A relatively large number of transferred cells were used in order to allow detection of the transferred cells by flow cytometry analysis at the end of the study. Mice were split into Control Ig and C1ORF32 ECD-Fc (SEQ ID NO:42) treatment groups, receiving 100 ug/dose intraperitoneal injection three times per week for 2 weeks. On Day +14 after cell transfer, 5 representative mice from each group were selected for analysis of trafficking of transferred cells into the CNS. Spleens, cervical lymph nodes, and CNS were collected, and the number of PBSE- or PBSE+/CD45+/CD3+/CD4+ T cells was analyzed by flow cytometric analysis.
An additional experiment (designated “MYC48 FACS”, FIG. 13) was performed using an alternative staining follow-up approach. […] To evaluate C1ORF32 ECD-Fc (SEQ ID NO:42) effect on immune cell trafficking to the CNS, spleens, cervical lymph nodes, and CNS cells collected form 5 mice on day +10 post cell transfer, and the number of transferred CD45hi PBSE+ or GFP+ cells was analyzed by flow cytometry. […]

Assay [3] deals with SJL/J mice. Description: Adoptive transfer R-EAE, clinical score. The procedure:
Female SJL/J mice were primed with 50 μg of PLP139-151/CFA according to the standard laboratory protocol on day 0. On day 8 post disease induction, the inguinal lymph nodes were collected and the total lymph node cells were re-activated in culture in the presence of PLP139-151 for 3 days. At the end of culture, cells were collected and transferred into naive recipient SJL/J mice.
a. Mice were shaved (about a 1 in.×1 in, square on the back between the hind flanks) and injected with CFA/PLP139-151 emulsion at 100 μl per mouse s.c., divided between three spots on the back and flanks. Peptide and final dose given per mouse: 50 μg of PLP139-151 peptide on day 0.
b. On day 8 post priming with PLP139-151/CFA, the draining inguinal lymph nodes were collected, and single cell suspensions were prepared. Total lymph node cells were cultured at a density of 8×10^6 cells per ml in the HL-1 medium plus PLP139-151 peptide (20 μg/ml) in T75 flasks.
c. After 3 days of culture, the PLP139-151 reactivated cells were collected and counted using an hemacytometer. The number of total viable cells and the number of blast cells was determined. […]
f. Mice were scored on the indicated days, on a 0-5 disease score scale per standard laboratory protocol: 0, no abnormality; 1, limp tail; 2, limp tail and hind limb weakness; 3, hind limb paralysis; 4, hind limb paralysis and forelimb weakness; and 5, moribund. […]

B1: C1ORF32 ECD-Fc (SEQ ID NO:42): human-mouse fusion protein: human C1ORF32 ECD fused to mouse immunoglobulin Fc (SEQ ID NO:42) (protein)
chain: LQVTVPDKKKVAMLFQPTVLRCHFSTSSHQPAVVQWKFKSYCQDRMGESLGMSSTRAQSLSKRNLEWDPYLDCLDSRRTVRVVASKQGSTVTLGDFYRGREITIVHDADLQIGKLMWGDSGLYYCIITTPDDLEGKNEDSVELLVLGRTGLLADLLPSFAVEIMGSENLYFQGSGEPRGPTIKPCPPCKCPAPNLLGGPSVFIFPPKIKDVLMISLSPIVTCVVVDVSEDDPDVQISWFVNNVEVHTAQTQTHREDYNSTLRVVSALPIQHQDWMSGKEFKCKVNNKDLPAPIERTISKPKGSVRAPQVYVLPPPEEEMTKKQVTLTCMVTDFMPEDIYVEWTNNGKTELNYKNTEPVLDSDGSYFMYSKLRVEKKNWVERNSYSCSVVHEGLHNHHTTKSFSRTPGK
modifications: Fusion protein human C1ORF32-ECD fused to mouse IgG2a Fc
As to B1, the “recall responses, cellular proliferation of splenocytes and lymph node cells” value in assay [1] was “decreased level of cellular proliferation”. The “number of total or activated transferred T cells in spleen and cervical lymph nodes” value in the assay with SJL/J mice [2] is recorded as “No change”. Besides, the “disease induction / development” value in the assay with SJL/J mice [3] (100 ug/dose i.p. 3x/wk 2 wks from time of cell transfer) was “complete abolishment of disease induction; also recorded: abolished disease development”. The “clinical signs of the disease” value in the assay on SJL/J mice [3] (100 ug/mouse i.p. 3x/wk 2 wks from onset of disease remission) is “robust inhibition of clinical signs”.

These data come from US20190309044A1, “POLYPEPTIDES AND USES THEREOF AS A DRUG FOR TREATMENT OF AUTOIMMUNE DISORDERS” (Compugen Ltd., priority 2017, published 2019).
